In the test the target is T1, HDAC6 (histone deacetylase 6) (human, UniProt Q9UBN7 1-1215).
T1 construct: HDAC6, human, full length; source: bought: BPS Bioscience, cat. #50056
T1 sequence (looked up): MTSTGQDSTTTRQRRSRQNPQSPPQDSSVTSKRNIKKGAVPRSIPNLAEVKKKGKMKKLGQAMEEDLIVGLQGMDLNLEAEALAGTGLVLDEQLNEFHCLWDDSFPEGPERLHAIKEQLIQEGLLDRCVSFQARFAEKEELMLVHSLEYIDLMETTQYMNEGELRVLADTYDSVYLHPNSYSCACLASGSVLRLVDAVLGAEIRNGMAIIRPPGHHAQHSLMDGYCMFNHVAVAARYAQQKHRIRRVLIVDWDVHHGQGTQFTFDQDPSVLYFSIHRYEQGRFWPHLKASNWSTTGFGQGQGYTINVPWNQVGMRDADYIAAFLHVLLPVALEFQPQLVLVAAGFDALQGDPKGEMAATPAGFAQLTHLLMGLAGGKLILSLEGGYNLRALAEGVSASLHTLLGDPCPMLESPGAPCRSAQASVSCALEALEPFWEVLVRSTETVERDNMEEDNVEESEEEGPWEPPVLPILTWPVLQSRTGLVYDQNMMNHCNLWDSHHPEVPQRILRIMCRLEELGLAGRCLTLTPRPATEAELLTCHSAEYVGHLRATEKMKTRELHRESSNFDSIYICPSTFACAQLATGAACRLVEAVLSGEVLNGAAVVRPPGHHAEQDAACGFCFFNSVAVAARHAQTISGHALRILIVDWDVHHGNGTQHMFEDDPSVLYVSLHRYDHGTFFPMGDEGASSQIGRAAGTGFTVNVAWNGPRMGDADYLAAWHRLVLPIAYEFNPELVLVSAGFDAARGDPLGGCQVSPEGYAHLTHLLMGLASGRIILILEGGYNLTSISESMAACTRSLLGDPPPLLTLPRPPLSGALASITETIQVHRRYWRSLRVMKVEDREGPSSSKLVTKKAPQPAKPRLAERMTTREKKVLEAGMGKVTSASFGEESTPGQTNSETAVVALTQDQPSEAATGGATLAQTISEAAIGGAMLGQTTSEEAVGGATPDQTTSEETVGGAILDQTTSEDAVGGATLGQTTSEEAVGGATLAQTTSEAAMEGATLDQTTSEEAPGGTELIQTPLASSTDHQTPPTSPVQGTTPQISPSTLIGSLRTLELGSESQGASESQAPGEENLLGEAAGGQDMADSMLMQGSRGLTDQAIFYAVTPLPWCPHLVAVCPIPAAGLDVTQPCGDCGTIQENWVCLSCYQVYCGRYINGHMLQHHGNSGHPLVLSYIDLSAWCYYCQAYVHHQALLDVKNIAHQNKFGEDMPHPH
Nature of the test: fluorogenic enzyme inhibition assay; peptide in 5-fold dilution series with enzyme and fluorogenic substrate (Ac-Leu-Gly-Lys(Ac)-AMC or Ac-Leu-Gly-Lys(Tfa)-AMC), HEPES buffer pH 7.4, 30 min, 37 °C, trypsin development; Ki by the Cheng-Prusoff equation. As to conditions: both partners purified.

Starred links: 1 amine or outer side, 2 acyl side, 3 side chain; linkers in the order of their positions; H or OH if unused. Non-standard residues stand in square brackets, D forms with d. Primed or numbered codes have the meaning given here. No end group written: not given here. Asuha″ = L-2-amino-8-(hydroxyamino)-8-oxooctanoic acid, O=C(CCCCC[C@H](N[*:1])C(=O)[*:2])NO

B1: peptide 1a (parent H4K12 Asuha peptide) (peptide)
chain: KGGKGLG[Asuha″]GGAKRHR
Broadly, the Ki is the dissociation constant of the complex between target and ligand, obtained from inhibition or displacement. High values mean lower affinity, low ones higher affinity. Turning to B1, the inhibitory constant (Ki) was 5.31 ± 0.03 nM.

Source of the values: paper PMC7782793, “Hydroxamic acid-modified peptide microarrays for profiling isozyme-selective interactions and inhibition of histone deacetylases” (Nature Communications, 2021).
